Assay results from US20150266963A1 (ARGEN X B V, published 2015).
Positions count from the first letter of the chain named.

B1: 5F4 Fab (Fab, V domains shown)
VH: EVQVQESGGGLVHPGGSLKLSCAASGFTFDTYAMSWVRQAPGKGLEWVSAISWSGGETFYAESMKGRFTISRNNAKNTLYLQMNSLKSEDTAVYYCARGMGLAEGLTDWGQGTQVTVSS
VL: QAVVTHPPSLSASPGSSVRLTCTLISGDNIGGYDISWYQQKTGSPPRYLLYYYSDSYKHQSSGVPSRFSGSKDASANAGLLLISGLQSEDEADYYCSAYKSGSYKAPVFGGGTHLTVLG
notes: Llama-derived Fab
B2: 9D1 Fab (Fab, V domains shown)
VH: EVQLVESGGGLVQPGGSLRLSCAASGFTFSVYYMNWVRQAPGKGLEWVSDINNEGGTTYYADSVKGRFTISRDNAKNTLTLQMNSLKPEDTALYYCVRDAGYSNHVPIFDSWGQGTQVIVAS
VL: QAVVTQEPSLSVSPGGTVTLTCGLSSGSVTSSHYPGWYQQTPGQAPRLLIFNTNSRHSGVPSRFSGSISGNKAALTITGAQPEDEADYYCALLNIDDGSTMFGGGTHLTVLG
notes: Llama-derived Fab
B3: 24F2 Fab (Fab, V domains shown)
VH: B2 VH
VL: QSALTQPSAVSVSLGQTARITCRGDTLRNYHANWYRQKPGQAPVLVIYGDDIRPSGIPERFSGSRLGGTATLTVSGAQAEDEADYYCQSSDSSGYRVVFGGGTKLTVLG
notes: Llama-derived Fab
B4: 5B2 chimeric llama-human mAb (antibody, human IgG1, V domains shown)
VH: QVQLVESGGDLVQPGGSLRLSCAASGFTVSNPAMSWVRQAPGKGLEWVSEITNYGYNRYYADSVKGRFTISTDNAKNTLYLQMNSLRSEDSAVYYCTASLGLEYGYGDWGQGTQVTVSS
VL: QSALTQPPSVSGTLGKTLTISCAGTSSDVGYGNYVSWYQQLPGTAPKLLIYRVSTRASGMPDRFSGSKSGNTASLTISGLQSEDEADYYCASYTTNNKPVFGGGTHLTVLG
B5: 5B2 (Fab, V domains shown)
VH: B4 VH
VL: B4 VL
notes: also called 5B2 Fab
B6: 19G10 Fab (Fab, V domains shown)
VH: EVQLQESGGGVVQPGGSLRLSCAASGFTFDDYAMSWVRQAPGKGLEWVSSIYMYDSSTYYADSVKGRFTISTDNAKNTVYLQMNSLKSEDTAVYYCAKDINRSYGSSWSHFGPIFSSWGQGTQVTVSS
VL: NFMLTQPSAVSVSLGQTARITCQGGYYTHWYQQKPGQAPVLVIYVNNNRPSGIPERFSGSSSGNTATLTISGAQAEDEAAYYCQSGSSSTIPVFGGGTKLTVLG
notes: Llama-derived Fab
B7: 9E1 Fab (Fab, V domains shown)
VH: B6 VH
VL: QAVVTQEPSLSVSPGGTVTLTCGLTSGSVTSSNYPDWYQQTPGQAPRLLIYNTNSRHSGVPSRFSGSISGNKAALTITGAQPEDEADYYCNLYMGSGGSKVFGGGTKLTVLG
notes: Llama-derived Fab
B8: 24B6 Fab (Fab, V domains shown)
VH: B6 VH
VL: B6 VL with N1Q, F2P, M3V, V45I, S61I, A75V, A80D
notes: Llama-derived Fab
B9: 1C2 Fab (Fab, V domains shown)
VH: ELQVVESGGGLVQPGGSLRLSCAASGFTLSNYWMHWVRQAPRKGLEWVSTISTDNSRTYYADSVKGRFTISRDHAKNTLILQMNSLKSEDTAVYYCIRGSDYEHWGQGTQVTVSS
VL: QTVVTQEPSLSVSPGGTVTLTCGLSSGSVTTTNYPGWFQQTPGQAPRTLIYSTSSRHSGVPSRFSGSISGNKAALTITGAQPEDEADYYCALEEIGSYTYMFGGGTHLTVLG
notes: Llama-derived Fab
B10: 9B2 Fab (Fab, V domains shown)
VH: QLQVVESGGGLMQPGGSLRLSCAASGFTFSGSAMSWVRQAPGKGLEWVSSIYSHSMYTYYADSVKSRFTISTDNAKNTLYLQMNSLKPDDTAVYYCAASSDYEGLFVSWGQGTQVTVSS
VL: QAVLTQPPSLSASPGSSVRLTCTLNSANSVGSYDISWYQQKAGSPPRYLLYYYSDSLSHQGSGVPSRFSGSTDASANAGLLLISGLQPEDEADYYCSAYNRGSHVFGGGTKLTVLG
notes: Llama-derived Fab
B11: 9G2 Fab (Fab, V domains shown)
VH: B10 VH with L2V, V4L, G31S, H54D, M56S, A98G, L105S, V107A
VL: B10 VL with A2S, L4V, N25S, A27G, S32N, L57V, S58K, T72S, N100K, R101S
notes: Llama-derived Fab
B12: 57B6 Fab (Fab, V domains shown)
VH: QLQLVESGGGLVQPGGSLRLSCAASGFSFSHYAMSWVRQAPGKGLEWVSGDNTYDGGTRYQDSVKGRFTISRDNGKNTLYLQMNSLKPEDTAVYYCAKDTGRGIMGEYGMDYWGKGTLVTVSS
VL: QTVVTQEPSLSVSPGGTVTLTCGLKSGSVTSSNYPAWYQQTPGQAPRLLIYNTNSRHSGVPSRFSGSISGNKAALTITGAQPEDEADYYCALYMGSGSANAMFGGGTHLTVLG
notes: Llama-derived Fab
B13: 4D2 Fab (Fab, V domains shown)
VH: QVQLQESGPGLVKPSQTLSLACTVSGGSITTSYYYWSWIRQPPGKGLEWMGAIGSRGSTYYSPSLKTRTSISRDTSKNQFTLQLSSVTPEDTAVYYCARVTGEITYNSGSYYYTLNLFDYWGQGTQVTVSS
VL: QSVLTQPPSLSASPGSSVRLTCTLSSGNSVGNYDISWYQQKAGSPPRYLLYYYSDSYKNQGSGVPSRFSGSKDPSANAGLLLISGLQAEDEADYYCSVSNSGTYKPVFGGGSKLTVLG
notes: Llama-derived Fab

What was measured:
[1] = target: T1, rhesus recombinant CD70 (FLAG-TNC-rhesus CD70) (rhesus); test: Biacore; rhesus recombinant CD70 on chip; Fab injected
T1 construct: also called rhesus Flag-TNC-CD70

[2] = target: T2, recombinant human CD70 (Flag-TNC-CD70) (human, UniProt P32970 39-193); test: Biacore; recombinant human CD70 on CM5 chip; Fab injected
T2 construct: extracellular domain; Captured by anti-Flag mAb in ELISA; as 'recombinant human CD70' immobilised on Biacore CM5 chips; TNC is for trimerisation; also called recombinant CD70; human recombinant CD70; not shown: Flag tag and TNC trimerisation domain
T2 sequence (looked up): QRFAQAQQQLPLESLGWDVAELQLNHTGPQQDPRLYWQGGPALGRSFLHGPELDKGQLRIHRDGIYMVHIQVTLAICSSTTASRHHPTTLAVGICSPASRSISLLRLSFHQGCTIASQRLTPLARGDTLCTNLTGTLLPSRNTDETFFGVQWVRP
Description: Off-rates of the purified llama-derived anti-CD70 blocking Fabs were determined using the Biacore. Recombinant human CD70 was immobilized on a CM5 Biacore chip. The immobilization was performed in accordance with a method provided by Biacore and by using the NHS/EDC kit (Biacore AB): after activation of the chip, a solution of 50 μg/ml of recombinant CD70 in 10 mM acetate buffer with pH of 5 was prepared and 1 μl of this solution (50ng) was injected resulting in a surface density of approximately 1000 RU.
Fabs for the CD70 mAbs ARGX-110, MDX2H5 and SGN70 were prepared by […] digestion (SGN70 and MDX69A7 are described elsewhere herein, MDX2H5, also referred to as MDX1411, is described in WO2008/074004 FIGS. 1A and 1B). Fabs, at a concentration of approximately 100-400 μg/ml, were diluted 6-fold in hepes-buffered saline (0.1M Hepes, 1.5M NaCl, 30 mM EDTA, 0.5% v/v surfactant P20). They were injected (30 μl) and passed through the flow cells at a flow rate of 30 μl/min. After binding of the Fab to CD70, the off-rate was monitored for a period of 10 minutes. After the dissociation, the flow cell surfaces were regenerated by injecting 5 μl of 10 mM NaOH. Sometimes multiple injections of NaOH were needed to regenerate the surfaces depending on the affinity of the Fabs. Off-rate analysis was done by applying the BIAevaluation software. First, the sensogram of the blank runs were subtracted from those obtained with the coated flow cell. […] Moreover, the off-rate of CD27 for CD70 was determined as well.

[3] = target: T2, recombinant human CD70 (Flag-TNC-CD70); test: inhibition ELISA: Flag-TNC-CD70 captured by anti-Flag mAb, Fab titrated, remaining binding of CD27-Fc detected
Description: (§1) From selected phage transfected into TG1, individual colonies were picked randomly for growth in 96 well plates. After IPTG induction according to standard protocols periplasmic fractions (penis) containing Fabs were prepared. […] In this assay, Flag-TNC-CD70 is captured by an anti-Flag mAb and binding of CD27-Fc is detected via a biotinylated anti-CD27 mAb and strep-HRP in the absence or presence of CD70 Fabs (FIGS. 2 and 3) or CD70 mAbs (FIG. 4). In FIG. 2B it can be seen that 27B3, which has an identical VH as 9D1, but contains a somewhat different light chain, seems to block binding of CD27 to CD70 more efficiently, which was in line with the better off rate of this Fab as measured on Biacore (data not shown). Table 3 indicates the blocking potency (expressed as IC50) for the various llama-human chimeric mAbs tested in the CD70 inhibition ELISA. […] FIG. 3 is a composite of an experiment testing llama CD70 Fabs for blocking activity (in the inhibition ELISA, see white bars) and for CD70 binding (binding ELISA, black bars). For the binding ELISA, Flag-TNC-CD70 is captured by an anti-Flag mAb and binding of the Fabs is detected using an anti-myc-HRP mAb, which recognizes the MYC tag fused to the C-terminus of the Fd fragment. For comparison purposes, known monoclonal antibodies to CD70 (SGN70 described in US 2010/0129362 A1, clone 1F6; and MDX69A7 described in WO2008/074004 FIGS. 5A and 5B) were tested in parallel. […] Of interest is clone 59D10, which as Fab has no blocking activity, but when converted into a chimeric IgG was antagonistic (see Table 3). Amino acid sequences of the VH and VL domains of binding and blocking llama-derived Fab clones are shown elsewhere herein (Tables 6-9).

[4] = target: T3, human CD70 expressed on the surface of cells (human, UniProt P32970 1-193); test: cell-based or functional assay
T3 sequence (looked up): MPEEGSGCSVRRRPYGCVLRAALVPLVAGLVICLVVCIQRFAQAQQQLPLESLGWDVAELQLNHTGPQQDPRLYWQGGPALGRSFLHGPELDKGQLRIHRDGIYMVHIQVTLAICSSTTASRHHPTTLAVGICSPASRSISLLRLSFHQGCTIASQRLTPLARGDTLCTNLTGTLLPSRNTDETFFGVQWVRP

[5] = target: T2, recombinant human CD70 (Flag-TNC-CD70); test: inhibition ELISA; Flag-TNC-CD70 captured by anti-Flag mAb; competitor CD27-Fc
Description: as §1

Row | Binder | koff [1] | koff [2] | IC50 (read off the curve) [3] | IC50 (ng/ml), IL-8 secretion in Raji / HT1080-CD27 co-culture assay [4] | IC50 [5]
1 | B1 | 0.0005 s⁻¹ | 8e-05 s⁻¹ | ~0.2 µg/mL | – | –
2 | B2 | 0.0002 s⁻¹ | 0.00048 s⁻¹ | ~0.2 µg/mL | – | –
3 | B3 | – | 0.00016 s⁻¹ | ~0.04 µg/mL | – | –
4 | B4 | – | – | – | 19 ng/mL | 0.092 µg/mL
5 | B5 | – | – | ~2 nM | – | –
6 | B6 | – | 8e-05 s⁻¹ | ~0.04 µg/mL | – | –
7 | B7 | 0.0002 s⁻¹ | 0.00019 s⁻¹ | – | – | –
8 | B8 | – | 0.0001 s⁻¹ | ~0.04 µg/mL | – | –
9 | B9 | 0.00032 s⁻¹ | – | – | – | –
10 | B10 | 0.00061 s⁻¹ | 0.00028 s⁻¹ | ~4 nM | – | –
11 | B11 | 0.00018 s⁻¹ | 0.00018 s⁻¹ | ~2 nM | – | –
12 | B12 | 4e-05 s⁻¹ | 0.0001 s⁻¹ | – | – | –
13 | B13 | 0.00029 s⁻¹ | 0.00033 s⁻¹ | ~1 nM | – | –
